{"source": "patent US9512195B2", "about": "“Insulin derivatives containing additional disulfide bonds” (Novo Nordisk A/S, priority 2010, dated 2016)", "target": "T1, human insulin receptor (human IR-A) (Homo sapiens, UniProt P06213)", "T1 construct": "solubilized human IR (holoreceptor); expressed in transfected cells; host or cells: baby hamster kidney (BHK) cells, stably transfected (pZem vector); detergent-solubilised and semipurified on wheat germ agglutinin", "T1 sequence (P06213 28-746 isoform P06213-2 limits assumed)": "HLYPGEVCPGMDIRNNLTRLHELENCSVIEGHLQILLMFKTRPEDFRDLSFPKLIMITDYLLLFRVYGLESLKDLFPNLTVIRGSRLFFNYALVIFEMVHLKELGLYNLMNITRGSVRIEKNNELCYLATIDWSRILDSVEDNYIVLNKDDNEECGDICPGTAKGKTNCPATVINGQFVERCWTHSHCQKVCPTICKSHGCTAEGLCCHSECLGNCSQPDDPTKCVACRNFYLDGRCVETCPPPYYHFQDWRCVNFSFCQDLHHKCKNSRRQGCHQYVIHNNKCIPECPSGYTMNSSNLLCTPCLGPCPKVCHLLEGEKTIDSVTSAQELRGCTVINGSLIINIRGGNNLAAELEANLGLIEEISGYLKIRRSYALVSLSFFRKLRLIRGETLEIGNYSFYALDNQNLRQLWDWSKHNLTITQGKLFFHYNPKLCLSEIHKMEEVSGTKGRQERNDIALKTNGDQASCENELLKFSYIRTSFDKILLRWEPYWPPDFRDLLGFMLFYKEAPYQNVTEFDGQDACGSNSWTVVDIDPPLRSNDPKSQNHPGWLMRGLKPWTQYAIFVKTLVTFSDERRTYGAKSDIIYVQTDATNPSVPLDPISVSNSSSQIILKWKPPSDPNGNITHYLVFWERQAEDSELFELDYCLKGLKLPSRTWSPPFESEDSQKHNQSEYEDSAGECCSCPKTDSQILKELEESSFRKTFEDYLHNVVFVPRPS", "T1 sequence (P06213 763-1382 partner limits assumed)": "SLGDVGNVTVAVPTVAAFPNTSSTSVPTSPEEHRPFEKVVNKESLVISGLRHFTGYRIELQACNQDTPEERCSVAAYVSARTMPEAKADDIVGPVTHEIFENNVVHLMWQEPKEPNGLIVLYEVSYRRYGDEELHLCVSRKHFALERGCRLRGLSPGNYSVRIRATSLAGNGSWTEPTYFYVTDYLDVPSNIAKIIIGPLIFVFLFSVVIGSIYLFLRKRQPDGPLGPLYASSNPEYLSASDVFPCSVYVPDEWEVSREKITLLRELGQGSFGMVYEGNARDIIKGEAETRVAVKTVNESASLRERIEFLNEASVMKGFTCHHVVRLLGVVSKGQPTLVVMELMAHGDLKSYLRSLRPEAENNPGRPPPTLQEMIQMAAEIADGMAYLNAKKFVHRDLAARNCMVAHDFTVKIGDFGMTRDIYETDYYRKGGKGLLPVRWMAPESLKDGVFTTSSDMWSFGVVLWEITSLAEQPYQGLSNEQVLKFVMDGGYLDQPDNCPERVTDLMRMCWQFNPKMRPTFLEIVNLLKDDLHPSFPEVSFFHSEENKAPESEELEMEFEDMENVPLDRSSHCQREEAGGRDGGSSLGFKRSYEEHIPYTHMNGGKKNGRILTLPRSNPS", "test": "Insulin receptor binding assay (SPA, on solubilised insulin receptor)", "conditions": "comparison table of side chain and parent insulin mutations (rel. to HI)", "experimental": "Insulin Receptor Binding Assay (on Solubilised Insulin Receptor)\nCompetition binding experiments were performed in 96-well plates (polystyrene Optiplate-96, PerkinElmer) on an Eppendorf epMotion 5075 robot using solubilized human IR (holoreceptor) semipurified by wheat germ agglutinin purification from baby hamster kidney (BHK) cells, which were stably transfected with the pZem vector containing the human IR-A or IR-B insert."}
{"substance": "C18-gGlu- desB30: desB30 human insulin with side chain C18-gGlu- (cell cut off), no additional disulfide bond", "values": [{"measurement": "Relative IR-A affinity SPA assay (@ 0% HSA)", "setting": "0% HSA", "value": 10.4}, {"measurement": "Relative IR-A affinity SPA assay (@ […]", "setting": "[…] (HSA)", "value": 0.70}]}
